Laboratory results published in publication PMC7033180, “An endocannabinoid catabolic enzyme FAAH and its paralogs in an early land plant reveal evolutionary and functional relationship with eukaryotic orthologs” (Scientific Reports, 2020).

What was measured:
PpFAAH1 = biological target: T1, PpFAAH1 (Physcomitrium patens, UniProt A0A7I4CIU2); assay: radiolabeled amidohydrolase assay, TLC with radiometric scanner, […] min preincubation with inhibitor; format: biochemical; details: read-out: % inhibition at 10 nM
T1 construct: full length cDNA in pDEST15 (GST tag), E. coli BL21(DE3), GST column, tag removal not mentioned; cloning primers translate to N-terminus MAQNKMR and C-terminus FYNILK; catalytic triad K202, S278, S302
T1 sequence (A0A7I4CIU2 1-601): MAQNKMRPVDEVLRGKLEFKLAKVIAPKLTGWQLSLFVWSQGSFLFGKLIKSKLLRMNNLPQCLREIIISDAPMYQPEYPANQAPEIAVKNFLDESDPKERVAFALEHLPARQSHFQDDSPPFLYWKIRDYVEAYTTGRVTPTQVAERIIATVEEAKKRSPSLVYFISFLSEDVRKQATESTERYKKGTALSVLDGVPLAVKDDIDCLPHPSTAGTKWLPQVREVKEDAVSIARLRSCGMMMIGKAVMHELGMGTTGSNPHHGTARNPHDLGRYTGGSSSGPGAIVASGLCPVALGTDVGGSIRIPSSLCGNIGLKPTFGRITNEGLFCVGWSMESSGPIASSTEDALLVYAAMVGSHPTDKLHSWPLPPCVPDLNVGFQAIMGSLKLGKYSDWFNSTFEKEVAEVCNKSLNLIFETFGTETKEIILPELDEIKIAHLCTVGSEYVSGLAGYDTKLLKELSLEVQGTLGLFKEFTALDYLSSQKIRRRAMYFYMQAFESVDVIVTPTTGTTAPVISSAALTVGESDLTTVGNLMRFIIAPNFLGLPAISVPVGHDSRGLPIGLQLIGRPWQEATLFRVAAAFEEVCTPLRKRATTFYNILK

[1] = substrate: CCCCC/C=C\C/C=C\C/C=C\C/C=C\CCCC(=O)NCCO; assay: radiolabeled amidohydrolase assay, TLC with radiometric scanner; format: biochemical, Physcomitrium patens; details: pH 8.0, 37 °C, labelled compound ([1-14C])
Protocol: radiolabeled amidohydrolase assay, TLC with radiometric scanner on PpFAAH1 | The kinetic parameters, Km and Vmax for PpFAAH1 with anandamide as a substrate were determined

In the case of NC(=O)c1cccc(-c2cccc(OC(=O)NC3CCCCC3)c2)c1 [URB597, [3-(3-carbamoylphenyl)phenyl] N-cyclohexyl carbamate], the inhibition at 0.01 µM (PpFAAH1) is reported as 20%.

B1: PpFAAH1 (Physcomitrium patens) (protein)
chain: T1 sequence (A0A7I4CIU2 1-601)
notes: full length cDNA in pDEST15 (GST tag), E. coli BL21(DE3), GST column, tag removal not mentioned; cloning primers translate to N-terminus MAQNKMR and C-terminus FYNILK; catalytic triad K202, S278, S302
B1 gave a Km [1] of 2.3 µM and a kcat [1] of 1.4 S^−1.
